Source: publication PMC2814163
Read-outs that look alike come from different tables or passages of the source.

How the values were obtained:
[1] = biological target: plasminogen (Homo sapiens) (UniProt P00747); settings: cited from earlier work
[2] = biological target: Dom1-3His (extracytoplasmic domains 1-3 of the bovine CI-MPR, residues 1-432, C-terminal His6) (bovine) (UniProt P08169); assay: SPR
Dom1-3HisR118A (bovine) = Dom1-3HisR118A (bovine) (UniProt P08169); assay: SPR
[3] = biological target: soluble form of the cation-independent mannose 6-phosphate receptor isolated from fetal bovine serum (bovine) (UniProt P08169); assay: SPR
Dom1-3HisK23A (bovine) = Dom1-3HisK23A (bovine) (UniProt P08169); assay: SPR
Dom1-3HisK53A (bovine) = Dom1-3HisK53A (bovine) (UniProt P08169); assay: SPR
Dom1-3HisK98A (bovine) = Dom1-3HisK98A (bovine) (UniProt P08169); assay: SPR
[4] = biological target: Dom1-3His (extracytoplasmic domains 1-3 of the bovine CI-MPR, residues 1-432, C-terminal His6) (bovine) (UniProt P08169); assay: SPR; remark: listed apart in the source
Dom1-3HisK82A (bovine) = Dom1-3HisK82A (bovine) (UniProt P08169); assay: SPR
Dom1-3HisK125A (bovine) = Dom1-3HisK125A (bovine) (UniProt P08169); assay: SPR
[5] = biological target: Dom1-2His (domains 1-2 of the bovine CI-MPR, residues 1-281, C-terminal His6) (bovine) (UniProt P08169); assay: SPR
[6] = biological target: Dom1His (domain 1 of the bovine CI-MPR, residues 1-123, C-terminal His6) (bovine) (UniProt P08169); assay: SPR
Dom1-3HisK132A (bovine) = Dom1-3HisK132A (bovine) (UniProt P08169); assay: SPR
Dom1-3HisK215A (bovine) = Dom1-3HisK215A (bovine) (UniProt P08169); assay: SPR
Sequence of Dom1-3HisK215A (bovine) (P08169 45-476 K259A): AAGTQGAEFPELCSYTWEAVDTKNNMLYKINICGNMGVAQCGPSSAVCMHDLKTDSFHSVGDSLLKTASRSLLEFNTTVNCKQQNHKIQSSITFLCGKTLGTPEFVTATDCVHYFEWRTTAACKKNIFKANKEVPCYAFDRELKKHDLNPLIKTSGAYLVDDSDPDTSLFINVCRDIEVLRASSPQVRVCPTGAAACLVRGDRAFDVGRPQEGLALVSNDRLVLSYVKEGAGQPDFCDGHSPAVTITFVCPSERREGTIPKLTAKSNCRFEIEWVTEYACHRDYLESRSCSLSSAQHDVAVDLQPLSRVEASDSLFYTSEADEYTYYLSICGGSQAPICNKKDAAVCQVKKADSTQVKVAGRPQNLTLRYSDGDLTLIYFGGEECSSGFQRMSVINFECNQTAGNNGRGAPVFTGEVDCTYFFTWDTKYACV

Sequence of Dom1-3His (extracytoplasmic domains 1-3 of the bovine CI-MPR, residues 1-432, C-terminal His6) (bovine) (P08169 45-476): as the sequence (P08169 45-476 K259A) above, with A215K counted along it
Sequence of Dom1His (domain 1 of the bovine CI-MPR, residues 1-123, C-terminal His6) (bovine) (P08169 45-167): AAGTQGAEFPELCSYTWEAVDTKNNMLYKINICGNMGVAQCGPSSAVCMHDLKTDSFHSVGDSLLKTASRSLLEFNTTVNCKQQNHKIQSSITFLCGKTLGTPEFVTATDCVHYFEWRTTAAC
Sequence of plasminogen (Homo sapiens) (P00747 20-810): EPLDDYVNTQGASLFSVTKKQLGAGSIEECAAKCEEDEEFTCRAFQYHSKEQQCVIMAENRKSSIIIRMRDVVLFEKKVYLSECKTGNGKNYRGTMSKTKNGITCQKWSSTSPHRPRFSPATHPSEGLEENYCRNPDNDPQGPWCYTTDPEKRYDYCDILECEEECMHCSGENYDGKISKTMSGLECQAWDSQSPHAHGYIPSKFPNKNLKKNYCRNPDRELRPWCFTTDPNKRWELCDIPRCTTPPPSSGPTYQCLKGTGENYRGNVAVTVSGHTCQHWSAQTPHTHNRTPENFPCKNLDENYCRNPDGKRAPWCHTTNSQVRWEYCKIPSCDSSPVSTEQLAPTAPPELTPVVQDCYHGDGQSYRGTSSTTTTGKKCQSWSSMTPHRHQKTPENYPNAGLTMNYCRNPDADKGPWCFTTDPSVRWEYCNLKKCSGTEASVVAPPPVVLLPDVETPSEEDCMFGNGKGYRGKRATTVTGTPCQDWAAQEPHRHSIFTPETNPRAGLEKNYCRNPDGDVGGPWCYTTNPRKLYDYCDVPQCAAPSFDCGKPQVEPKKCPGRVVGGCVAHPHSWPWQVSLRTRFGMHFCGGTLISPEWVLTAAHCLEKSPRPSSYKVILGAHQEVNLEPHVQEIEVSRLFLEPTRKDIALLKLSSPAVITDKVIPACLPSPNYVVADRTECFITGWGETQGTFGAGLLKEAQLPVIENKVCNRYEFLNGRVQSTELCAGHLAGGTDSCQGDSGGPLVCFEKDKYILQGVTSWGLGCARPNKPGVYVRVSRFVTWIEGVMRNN
Sequence of Dom1-3HisK23A (bovine) (P08169 45-476 K67A): as the sequence (P08169 45-476 K259A) above, with K23A, A215K counted along it
Sequence of Dom1-3HisK53A (bovine) (P08169 45-476 K97A): as the sequence (P08169 45-476 K259A) above, with K53A, A215K counted along it
Sequence of soluble form of the cation-independent mannose 6-phosphate receptor isolated from fetal bovine serum (bovine) (P08169 45-2313): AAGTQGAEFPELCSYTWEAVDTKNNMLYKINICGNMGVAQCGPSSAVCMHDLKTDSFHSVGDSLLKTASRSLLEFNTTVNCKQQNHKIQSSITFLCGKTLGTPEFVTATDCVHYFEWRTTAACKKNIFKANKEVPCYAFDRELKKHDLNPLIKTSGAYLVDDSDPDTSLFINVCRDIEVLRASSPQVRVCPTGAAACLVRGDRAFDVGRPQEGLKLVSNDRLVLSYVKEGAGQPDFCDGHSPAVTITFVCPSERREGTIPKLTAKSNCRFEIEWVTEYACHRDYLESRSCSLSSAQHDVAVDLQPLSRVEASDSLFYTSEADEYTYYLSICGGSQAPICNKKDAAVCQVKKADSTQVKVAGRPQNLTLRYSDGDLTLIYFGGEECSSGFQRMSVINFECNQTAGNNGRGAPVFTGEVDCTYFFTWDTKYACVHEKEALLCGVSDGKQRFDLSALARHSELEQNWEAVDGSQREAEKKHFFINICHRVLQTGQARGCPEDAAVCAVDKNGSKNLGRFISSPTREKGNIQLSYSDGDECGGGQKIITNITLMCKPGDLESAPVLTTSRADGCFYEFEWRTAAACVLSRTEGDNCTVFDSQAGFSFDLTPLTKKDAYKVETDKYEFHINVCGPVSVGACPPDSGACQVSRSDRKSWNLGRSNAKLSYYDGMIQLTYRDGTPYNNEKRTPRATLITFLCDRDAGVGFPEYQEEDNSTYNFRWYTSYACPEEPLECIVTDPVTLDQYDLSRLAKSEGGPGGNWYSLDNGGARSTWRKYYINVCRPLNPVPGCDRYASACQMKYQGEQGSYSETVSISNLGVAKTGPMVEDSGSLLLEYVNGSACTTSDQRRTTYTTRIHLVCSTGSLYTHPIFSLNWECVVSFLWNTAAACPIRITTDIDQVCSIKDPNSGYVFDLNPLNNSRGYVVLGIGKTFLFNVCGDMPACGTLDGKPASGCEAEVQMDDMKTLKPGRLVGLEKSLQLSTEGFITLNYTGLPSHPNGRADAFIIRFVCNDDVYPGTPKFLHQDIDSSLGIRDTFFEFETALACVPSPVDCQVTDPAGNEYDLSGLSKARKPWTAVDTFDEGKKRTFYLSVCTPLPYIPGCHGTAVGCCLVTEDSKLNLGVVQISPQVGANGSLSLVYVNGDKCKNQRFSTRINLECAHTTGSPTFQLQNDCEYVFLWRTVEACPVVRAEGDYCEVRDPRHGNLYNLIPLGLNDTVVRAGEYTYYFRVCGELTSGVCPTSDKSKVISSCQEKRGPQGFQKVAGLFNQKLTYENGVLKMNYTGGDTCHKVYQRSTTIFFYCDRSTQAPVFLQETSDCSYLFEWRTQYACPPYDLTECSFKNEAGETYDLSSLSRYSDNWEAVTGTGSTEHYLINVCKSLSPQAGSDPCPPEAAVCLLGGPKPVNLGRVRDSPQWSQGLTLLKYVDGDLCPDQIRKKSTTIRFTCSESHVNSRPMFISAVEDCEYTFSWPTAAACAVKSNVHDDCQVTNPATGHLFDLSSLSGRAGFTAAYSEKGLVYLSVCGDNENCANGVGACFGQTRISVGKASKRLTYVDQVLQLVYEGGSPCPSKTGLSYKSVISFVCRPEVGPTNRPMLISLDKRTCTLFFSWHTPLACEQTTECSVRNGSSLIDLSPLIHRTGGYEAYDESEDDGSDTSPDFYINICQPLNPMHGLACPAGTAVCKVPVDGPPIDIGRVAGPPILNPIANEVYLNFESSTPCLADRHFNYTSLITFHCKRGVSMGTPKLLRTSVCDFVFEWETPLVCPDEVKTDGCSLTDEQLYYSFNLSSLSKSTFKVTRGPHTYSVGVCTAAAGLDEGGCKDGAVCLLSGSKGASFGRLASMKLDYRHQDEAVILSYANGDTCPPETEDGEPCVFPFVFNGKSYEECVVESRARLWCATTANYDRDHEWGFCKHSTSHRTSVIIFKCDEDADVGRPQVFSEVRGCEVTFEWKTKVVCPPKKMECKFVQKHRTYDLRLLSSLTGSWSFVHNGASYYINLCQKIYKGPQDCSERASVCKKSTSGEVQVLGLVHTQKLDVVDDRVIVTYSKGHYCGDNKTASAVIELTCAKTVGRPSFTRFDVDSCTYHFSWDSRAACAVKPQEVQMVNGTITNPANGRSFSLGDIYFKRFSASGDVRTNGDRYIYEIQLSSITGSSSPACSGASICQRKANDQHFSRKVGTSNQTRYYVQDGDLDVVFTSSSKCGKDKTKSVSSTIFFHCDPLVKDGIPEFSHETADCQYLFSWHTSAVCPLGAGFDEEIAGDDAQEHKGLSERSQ
Sequence of Dom1-3HisK82A (bovine) (P08169 45-476 K126A): as the sequence (P08169 45-476 K259A) above, with K82A, A215K counted along it
Sequence of Dom1-3HisK125A (bovine) (P08169 45-476 K169A): as the sequence (P08169 45-476 K259A) above, with K125A, A215K counted along it
Sequence of Dom1-2His (domains 1-2 of the bovine CI-MPR, residues 1-281, C-terminal His6) (bovine) (P08169 45-325): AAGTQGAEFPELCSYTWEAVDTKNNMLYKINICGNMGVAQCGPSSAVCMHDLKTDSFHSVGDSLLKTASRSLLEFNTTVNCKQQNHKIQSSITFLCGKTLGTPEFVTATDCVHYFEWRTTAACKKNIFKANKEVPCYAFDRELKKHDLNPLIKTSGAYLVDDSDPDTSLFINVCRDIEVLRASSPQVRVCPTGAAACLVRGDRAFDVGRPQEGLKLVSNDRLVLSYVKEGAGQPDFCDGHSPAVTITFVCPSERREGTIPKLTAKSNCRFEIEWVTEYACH
Sequence of Dom1-3HisK98A (bovine) (P08169 45-476 K142A): as the sequence (P08169 45-476 K259A) above, with K98A, A215K counted along it
Sequence of Dom1-3HisK132A (bovine) (P08169 45-476 K176A): as the sequence (P08169 45-476 K259A) above, with K132A, A215K counted along it
Sequence of Dom1-3HisR118A (bovine) (P08169 45-476 R162A): as the sequence (P08169 45-476 K259A) above, with R118A, A215K counted along it

Q: With CI-MPR (from UniProt P11717) as the substance, how does the Kd [1] read?
A: Its Kd is 270 nM.

Q: Which Kd [2] does the source give for “bovine Glu-plasminogen (natural protein)” here?
A: The Kd was 131 nM.

Q: What about the Kd (Dom1-3HisR118A (bovine)) of the same substance?
A: Its Kd is 21 nM.

Q: What about the Kd2 (two-site model) [3] of the same substance?
A: Its Kd2 (two-site model) is 290 nM.

Q: What about the Kd (Dom1-3HisK23A (bovine)) of the same substance?
A: The Kd was 33 nM.

Q: And the Kd (Dom1-3HisK53A (bovine))?
A: The Kd was greater than 2000 nM.

Q: What about the Kd (Dom1-3HisK98A (bovine)) of the same substance?
A: The Kd was 24 nM.

Q: What about the Kd [4] of the same substance?
A: Its Kd is 271 nM.

Q: And the Kd (Dom1-3HisK82A (bovine))?
A: Its Kd is 69 nM.

Q: What about the Kd (Dom1-3HisK125A (bovine)) of the same substance?
A: Its Kd is greater than 2000 nM.

Q: What about the Kd2 (two-site model) [5] of the same substance?
A: The Kd2 (two-site model) was 170 nM.

Q: And the Kd1 (two-site model) [6]?
A: The Kd1 (two-site model) was greater than 2 µM.

Q: And the Kd2 (two-site model) [6]?
A: Its Kd2 (two-site model) is greater than 2 µM.

Q: And the Kd (Dom1-3HisK132A (bovine))?
A: The Kd was 64 nM.

Q: And the Kd (Dom1-3HisK215A (bovine))?
A: The Kd was 10 nM.

Q: For “human angiostatin K1-4 (domain or fragment)”, which Kd [4] is on record?
A: Its Kd is 170 nM.
